The data set deals with A3G-CTD2* (catalytically inactive), MST construct (human, UniProt Q9HC16 191-384, E259A). Description: MST; 23 C; MST: 20 mM Bis-Tris pH 6.5, 100 mM NaCl, 1 mM DTT, 0.002% Tween 20, 50 nM protein, RED-tris-NTA dye, 23 C; NMR inhibition: 50 mM NaPO4 pH 6.5, 100 mM NaCl, 0.002% Tween 20, 1 mM DTT, 10 µM ZnCl2, 25 C. Particulars: protein: recombinant; tags: His (pET-28a); single strand.
Chain of A3G-CTD2* (catalytically inactive), MST construct (Q9HC16 191-384 E259A): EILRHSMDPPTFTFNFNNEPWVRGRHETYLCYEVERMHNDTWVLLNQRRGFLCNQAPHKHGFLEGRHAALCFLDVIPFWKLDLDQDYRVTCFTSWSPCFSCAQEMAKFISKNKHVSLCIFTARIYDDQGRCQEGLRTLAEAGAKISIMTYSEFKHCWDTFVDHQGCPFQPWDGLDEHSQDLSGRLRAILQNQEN

Take AATCCCAAA (ssDNA) [5'-AATCCCAAA (substrate)]: the Kd stood at 5.8 ± 0.8 µM.

Broadly, the Kd is the constant that tells how readily two partners part at equilibrium.

(Values after paper PMC9675756, “Structure of the catalytically active APOBEC3G bound to a DNA oligonucleotide inhibitor reveals tetrahedral geometry of the transition state”.)
